Laboratory results: patent publication US20240084039A1
Positions count from the first letter of the chain named.

B1: PRO2922 (scFv)
scFv: DIQMTQSPSSLSASVGDRVTITCQASESIYSSLAWYQQKPGKAPKLLIYLASTLASGVPSRFSGSGSGTDFTLTISSLQPEDFATYYCQSTDYTTSTHRNSFGTGTKVTVLGGGGGSGGGGSGGGGSGGGGSEVQLVESGGGRVQPGGSLRLSCAASGFSFSTTYYMCWVRQAPGKGLEWIGCTNTASSVRTYYATWAKGRFTISRDNSKNTVYLQMNSLRAEDTAVYYCARDMGFADYALNLWGQGTLVTVSS
B2: PRO2907 (scFv)
scFv: DIQMTQSPASLSASVGDRVTITCQASQSIGTYLAWYQQKPGKPPKLLIYRAFILASGVPSRFSGSGSGTDFTLTISSLQPEDFATYYCQSNFYSDSTTIGPNAFGTGTKVTVLGGGGGSGGGGSGGGGSGGGGSEVQLVESGGGRVQPGGSLRLSCAASGFSFNSDYWIYWVRQAPGKGLEWIASIYGGSSGNTQYASWAQGRFTISRDNSKNTVYLQMNSLRAEDTAVYFCARGYVDYGGATDLWGQGTLVTVSS
B3: PRO2920 (scFv)
scFv: B1 scFv with L249Q
B4: PRO2905 (scFv)
scFv: B2 scFv with L251Q
B5: PRO2919 (scFv)
scFv: B1 scFv with V227T
B6: PRO2918 (scFv)
scFv: B1 scFv with V227T, L249Q
B7: PRO2903 (scFv)
scFv: B2 scFv with V229T, L251Q
B8: PRO2925 (scFv)
scFv: B1 scFv with R143S, V227T, L249Q
B9: PRO2926 (scFv)
scFv: B2 scFv with R145S, V229T, L251Q
B10: PRO2924 (scFv)
scFv: B1 scFv with R143L, L249Q
B11: PRO2909 (scFv)
scFv: B2 scFv with R145L, L251Q
B12: PRO2921 (scFv)
scFv: B1 scFv with R143L, V227T, L249Q
B13: PRO2906 (scFv)
scFv: B2 scFv with R145L, V229T, L251Q
B14: PRO2990 (scFv)
scFv: B1 scFv with R143S, V227T, L249T
B15: PRO2984 (scFv)
scFv: B2 scFv with R145S, V229T, L251T
B16: PRO2741 (protein)
chain 1: DIQMTQSPSSLSASVGDRVTITCQASESIYSSLAWYQQKPGKAPKLLIYLASTLASGVPSRFSGSGSGTDFTLTISSLQPEDFATYYCQSTDYTTSTHRNSFGTGTKVTVLGGGGGSGGGGSGGGGSGGGGSEVQLVESGGGRVQPGGSLRLSCAASGFSFSTTYYMCWVRQAPGKGLEWIGCTNTASSVRTYYATWAKGRFTISRDNSKNTVYLQMNSLRAEDTATYYCARDMGFADYALNLWGQGTQVTVSSGGGGSGGGGSEVQLVESGGGRVQPGGSLRLSCAASGFSLSSYDMSWVRQAPGKGLAWIGASYASGPTYYASWAKGRFTISRDNSKNTVYLQMNSLRAEDTATYFCARGGWTGTSHSNIWGQGTQVTVSSGGGSGGGSGGGSGEVQLVESGGGRVQPGGSLRLSCAASGFSLSSYAMNWVRQAPGKCLEWIGHINAGDIAYYATWAKGRFTISRDNSKNTVYLQMNSLRAEDTATYFCARGAGGFSTGPFKLWGQGTQVTVSS
chain 2: DIQMTQSPSSLSASVGDRVTITCQASESIYSSLAWYQQKPGKAPKLLIYLASTLASGVPSRFSGSGSGTDFTLTISSLQPEDFATYYCQSTDYTTSTHRNSFGTGTKVTVLGGGGGSGGGGSGGGGSGGGGSEVQLVESGGGRVQPGGSLRLSCAASGFSFSTTYYMCWVRQAPGKGLEWIGCTNTASSVRTYYATWAKGRFTISRDNSKNTVYLQMNSLRAEDTATYYCARDMGFADYALNLWGQGTQVTVSSGGGGSGGGGSAFELTQSPSSLSASVGDRVTITCQASESINSRLAWYQQKPGQPPKLLIYDASDLTSGVPSRFSGSGSGTDFTLTISSLQPEDFATYYCQGYGGSSTTTFGCGTKLTVLGGGSGGSDIQMTQSPSSLSASVGDRVTITCQSSQSVFSNNYLAWFQQKPGQSPKRLIYSASTLASGVPSRFSGSGSGTDFTLTISSLQPEDFATYYCLGSYACSSADCYVFGTGTKVTVLG
B17: PRO2660 (protein)
chain 1: B16 chain 1 with R143L, T227V, Q249L, R275L, Q378L, R407L, T488V, Q511L
chain 2: B16 chain 2 with R143L, T227V, Q249L

target: pre-existing anti-drug antibodies (ADA) present in human sera; assay: ELISA pre-existing ADA binding assay, confirmatory setup, test molecule coated, 20 human sera

**Q.** How did the % positives of total tested serum samples turn out when B1 was run?
**A.** 10%

**Q.** What about the No of positive serum samples above 30% CCP (serum samples) of the same binder?
**A.** 2

**Q.** What does the source list for B2?
**A.** % positives of total tested serum samples: 15%; No of positive serum samples above 30% CCP (serum samples): 3

**Q.** How did the % positives of total tested serum samples turn out when B3 was run?
**A.** 10%

**Q.** What about the No of positive serum samples above 30% CCP (serum samples) of the same binder?
**A.** 2

**Q.** With B4 as the binder, how does the % positives of total tested serum samples read?
**A.** 20%

**Q.** And the No of positive serum samples above 30% CCP (serum samples)?
**A.** 7

**Q.** Which results are given for B5?
**A.** % positives of total tested serum samples: 5%; No of positive serum samples above 30% CCP (serum samples): 1

**Q.** With B6 as the binder, how does the % positives of total tested serum samples read?
**A.** 25%

**Q.** What about the No of positive serum samples above 30% CCP (serum samples) of the same binder?
**A.** 5

**Q.** Which % positives of total tested serum samples does the source give for B7 here?
**A.** 30%

**Q.** And the No of positive serum samples above 30% CCP (serum samples)?
**A.** 6

**Q.** Which results are given for B8?
**A.** % positives of total tested serum samples: 25%; No of positive serum samples above 30% CCP (serum samples): 5

**Q.** With B9 as the binder, how does the % positives of total tested serum samples read?
**A.** 40%

**Q.** And the No of positive serum samples above 30% CCP (serum samples)?
**A.** 8

**Q.** Which results are given for B10?
**A.** % positives of total tested serum samples: 75%; No of positive serum samples above 30% CCP (serum samples): 15

**Q.** For B11, which % positives of total tested serum samples is on record?
**A.** 50%

**Q.** And the No of positive serum samples above 30% CCP (serum samples)?
**A.** 10

**Q.** B12 was tested. Which % positives of total tested serum samples did it give?
**A.** 55%

**Q.** What about the No of positive serum samples above 30% CCP (serum samples) of the same binder?
**A.** 11

**Q.** With B13 as the binder, how does the % positives of total tested serum samples read?
**A.** 95%

**Q.** What about the No of positive serum samples above 30% CCP (serum samples) of the same binder?
**A.** 19

**Q.** B14 was tested. Which % positives of total tested serum samples did it give?
**A.** 25%

**Q.** And the No of positive serum samples above 30% CCP (serum samples)?
**A.** 5

**Q.** For B15, which % positives of total tested serum samples is on record?
**A.** 25%

**Q.** What about the No of positive serum samples above 30% CCP (serum samples) of the same binder?
**A.** 5

**Q.** With B16 as the binder, how does the % positives of total tested serum samples read?
**A.** 15%

**Q.** And the No of positive serum samples above 30% CCP (serum samples)?
**A.** 3

**Q.** For B17, which % positives of total tested serum samples is on record?
**A.** 30%

**Q.** And the No of positive serum samples above 30% CCP (serum samples)?
**A.** 6
